# Source: US20220259307A1 (Memorial Sloan Kettering, published 2022)
# Biological target: T1, CD33 (immobilized on CM5 sensor chip) (UniProt P20138 18-259, limits assumed)
# T1 construct: also called CD33 antigen
# Experiment: SPR (Biacore T-200), CD33 immobilized on CM5 chip
# T1 sequence (P20138 18-259 limits assumed): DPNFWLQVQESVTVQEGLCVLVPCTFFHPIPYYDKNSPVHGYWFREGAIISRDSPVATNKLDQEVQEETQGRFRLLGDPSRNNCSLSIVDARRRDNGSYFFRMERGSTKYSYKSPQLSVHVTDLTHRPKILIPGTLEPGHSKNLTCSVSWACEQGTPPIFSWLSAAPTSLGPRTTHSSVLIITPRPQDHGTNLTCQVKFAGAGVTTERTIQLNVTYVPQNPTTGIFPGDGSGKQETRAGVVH
Kd,koff,kon,Binder
198 pM,0.00017 s⁻¹,861000 M⁻¹ s⁻¹,"humanized HIM34 BsAb L4H7 (bispecific antibody, human IgG1, V domains shown, Tested as a humanized HIM34×CD3 BsAb in the IgG-scFv format (human IgG1 N297A/K322A, humanized OKT3 scFv on the light chain)) VH: QVQLQQSGAEVKKPGASVKVSCKASGYSFTDYNMYWVRQAPGQGLEWIGYIDPYKGGTIYNQKFKGRATLTRDTSISTAYMELSRLRSDDTAVYYCAREMITAYYFDYWGQGSSVTVSS VL: DIQMTQSPSSLSASVGDRVTITCKASQDINKYIAWYQHKPGKAPKLLIYYASNLQPGVPSRFSGSGSGRDFTFTISSLQPEDIATYYCLQYDNLLTFGAGTKLELK"
1210 pM,0.00597 s⁻¹,4.95e+06 M⁻¹ s⁻¹,"humanized HIM34 BsAb L4H1 (bispecific antibody, human IgG1, V domains shown, Tested as a humanized HIM34×CD3 BsAb in the IgG-scFv format (human IgG1 N297A/K322A, humanized OKT3 scFv on the light chain)) VH: QVQLQQSGAEVVKPGASVKVSCKASGYSFTDYNMYWVRQAPGQGLEWIGYIDPYKGGTNYAQKFQGRVTMTVDKSSSTAYMELSRLRSDDTAVYYCAREMITAYYFDYWGQGSSVTVSS VL: DIQMTQSPSSLSASVGDRVTITCKASQDINKYIAWYQHKPGKAPKLLIYYASNLQPGVPSRFSGSGSGRDFTFTISSLQPEDIATYYCLQYDNLLTFGAGTKLELK"

# More lines, now with the values behind:
Binder,Kd,koff,kon
"humanized HIM34 BsAb L4H4 (bispecific antibody, human IgG1, V domains shown, Tested as a humanized HIM34×CD3 BsAb in the IgG-scFv format (human IgG1 N297A/K322A, humanized OKT3 scFv on the light chain)) VH: QVQLVQSGAEVKKPGASVKVSCKASGYSFTDYNMYWVRQAPGQGLEWIGYIDPYKGGTNYAQKFQGRATLTVDKSSSTAYMELSRLRSDDTAVYYCAREMITAYYFDYWGQGSSVTVSS VL: DIQMTQSPSSLSASVGDRVTITCKASQDINKYIAWYQHKPGKAPKLLIYYASNLQPGVPSRFSGSGSGRDFTFTISSLQPEDIATYYCLQYDNLLTFGAGTKLELK",1650 pM,0.00743 s⁻¹,4.5e+06 M⁻¹ s⁻¹
"humanized HIM34 BsAb L3H4 (bispecific antibody, human IgG1, V domains shown, Tested as a humanized HIM34×CD3 BsAb in the IgG-scFv format: human IgG1 with N297A/K322A, humanized OKT3 scFv on the light chain C-terminus via (G4S)3) VH: QVQLVQSGAEVKKPGASVKVSCKASGYSFTDYNMYWVRQAPGQGLEWIGYIDPYKGGTNYAQKFQGRATLTVDKSSSTAYMELSRLRSDDTAVYYCAREMITAYYFDYWGQGSSVTVSS VL: DIQMTQSPSSLSASVGDRVTITCKASQDINKYIAWYQHKPGKAPKLLIHYTSTLETGVPSRFSGSGSGTDFTFTISSLQPEDIATYYCLQYDNLLTFGAGTKLELK",955 pM,0.00175 s⁻¹,1.84e+06 M⁻¹ s⁻¹
"chimeric HIM34×CD3 bispecific antibody (chHIM34 BsAb) (bispecific antibody, IgG-scFv format (tetravalent); also called chHIM34×CD3 BsAb; chimeric CD33-BsAb) light: DIVMTQSPSSLSASLGGKVTITCKASQDINKYIAWYQHKPGKGPRLLIHYTSTLQPGIPSRFSGSGSGRDYSFSISNLEPEDIATYYCLQYDNLLTFGAGTKLELKRTVAAPSVFIFPPSDEQLKSGTASVVCLLNNFYPREAKVQWKVDNALQSGNSQESVTEQDSKDSTYSLSSTLTLSKADYEKHKVYACEVTHQGLSSPVTKSFNRGECTSGGGGSGGGGSGGGGSQVQLVQSGGGVVQPGRSLRLSCKASGYTFTRYTMHWVRQAPGKCLEWIGYINPSRGYTNYNQKFKDRFTISRDNSKNTAFLQMDSLRPEDTGVYFCARYYDDHYSLDYWGQGTPVTVSSGGGGSGGGGSGGGGSGGGGSGGGGSGGGGSDIQMTQSPSSLSASVGDRVTITCSASSSVSYMNWYQQTPGKAPKRWIYDTSKLASGVPSRFSGSGSGTDYTFTISSLQPEDIATYYCQQWSSNPFTFGCGTKLQITR heavy: not shown",128 pM,0.000117 s⁻¹,914000 M⁻¹ s⁻¹

# Biological target: full length CD33 on cells (human, UniProt P20138 18-364)
# Sequence (P20138 18-364): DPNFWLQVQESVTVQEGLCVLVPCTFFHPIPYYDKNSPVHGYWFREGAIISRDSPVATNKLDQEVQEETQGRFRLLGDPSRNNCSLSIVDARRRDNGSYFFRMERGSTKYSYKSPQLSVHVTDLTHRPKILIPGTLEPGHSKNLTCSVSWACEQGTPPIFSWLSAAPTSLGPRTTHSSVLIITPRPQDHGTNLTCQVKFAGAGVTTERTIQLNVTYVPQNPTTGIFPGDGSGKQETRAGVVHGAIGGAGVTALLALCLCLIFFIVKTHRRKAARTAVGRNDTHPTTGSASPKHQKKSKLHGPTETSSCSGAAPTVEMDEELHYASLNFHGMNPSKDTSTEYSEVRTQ
# Experiment: cell-based or functional assay
Binder,"EC50 of T cell cytotoxicity, 4-hour 51Cr release assay, C1498-CD33 cells","EC50 of T cell cytotoxicity, 4-hour 51Cr release assay, THP1 cells"
"chimeric HIM34×CD3 bispecific antibody (chHIM34 BsAb) (bispecific antibody, IgG-scFv format (tetravalent); also called chHIM34×CD3 BsAb; chimeric CD33-BsAb) light: DIVMTQSPSSLSASLGGKVTITCKASQDINKYIAWYQHKPGKGPRLLIHYTSTLQPGIPSRFSGSGSGRDYSFSISNLEPEDIATYYCLQYDNLLTFGAGTKLELKRTVAAPSVFIFPPSDEQLKSGTASVVCLLNNFYPREAKVQWKVDNALQSGNSQESVTEQDSKDSTYSLSSTLTLSKADYEKHKVYACEVTHQGLSSPVTKSFNRGECTSGGGGSGGGGSGGGGSQVQLVQSGGGVVQPGRSLRLSCKASGYTFTRYTMHWVRQAPGKCLEWIGYINPSRGYTNYNQKFKDRFTISRDNSKNTAFLQMDSLRPEDTGVYFCARYYDDHYSLDYWGQGTPVTVSSGGGGSGGGGSGGGGSGGGGSGGGGSGGGGSDIQMTQSPSSLSASVGDRVTITCSASSSVSYMNWYQQTPGKAPKRWIYDTSKLASGVPSRFSGSGSGTDYTFTISSLQPEDIATYYCQQWSSNPFTFGCGTKLQITR heavy: not shown",0.001 pM,0.2 pM
